For one test, the target named is T1, GST-TvCyP2 (Trichomonas vaginalis, UniProt A2DLL4 1-186).
T1 construct: 186 aa; source: E. coli DH5α, purified (glutathione-conjugated beads)
As to the kind of experiment: pull-down; GST pull-down: 30 picomoles of GST or GST-fusion protein on 20 μl glutathione beads with 35 nM His-tagged protein in 1 ml TEN200 (1 mM EDTA, 200 mM NaCl, 20 mM Tris-HCl pH 7.4), 4 °C overnight; washes with 0.1% TritonX-100; anti-6xHis Western blot; in Fig. 3D also with DMSO or 5 μM cyclosporine A (binding greatly diminished). Conditions: both partners purified.

A further test addresses T2, GST-TvCyP2(R75A) (Trichomonas vaginalis, UniProt A2DLL4 1-186, R75A).
T2 construct: source: E. coli DH5α, purified (glutathione-conjugated beads)
Described as above. Conditions: both partners purified.

The values below come from PMC6985235, “Endomembrane Protein Trafficking Regulated by a TvCyP2 Cyclophilin in the Protozoan Parasite, Trichomonas vaginalis” (Scientific Reports, 2020).

B1: His-TvCyP1 (enzyme)
chain: not shown
notes: TvCyP1 cyclophilin of Trichomonas vaginalis; ~19-kDa band; source: purified
For the molecule B1, the binding result with GST-TvCyP2 and with GST-TvCyP2(R75A) was “binds” throughout.
